{
  "source": "patent EP0251446B1",
  "about": "“Non-human Carbonyl hydrolase mutants, DNA sequences and vectors encoding same and hosts transformed with said vectors” (GENENCOR INTERNATIONAL, INC., priority 1986, dated 1988)",
  "proteins": {"B1": {"name": "B. amyloliquefaciens subtilisin, wild type (WT, Gly166) (Bacillus amyloliquefaciens) (protein)", "chain": "AQSVPYGVSQIKAPALHSQGYTGSNVKVAVIDSGIDSSHPDLKVAGGASMVPSETNPFQDNNSHGTHVAGTVAALNNSIGVLGVAPSASLYAVKVLGADGSGQYSWIINGIEWAIANNMDVINMSLGGPSGSAALKAAVDKAVASGVVVVAAAGNEGTSGSSSTVGYPGKYPSVIAVGAVDSSNQRASFSSVGPELDVMAPGVSIQSTLPGNKYGAYNGTSMASPHVAGAAALILSKHPNWTNTQVRSSLENTTTKLGDSFYYGKGLINVQAAAQ", "notes": "at various amino acid residues within the mature form of the subtilisin molecule; made in house; host or cells: Bacillus subtilis (secreted, culture supernatant)"}},
  "experiment_in_all_cases": "Kinetics of hydrolysis of succinyl-Ala-Ala-Pro-X-p-nitroanilide substrates (progress curve analysis)",
  "assay_type_in_all_cases": "biochemical, B. amyloliquefaciens",
  "key": {"[1]": {"substrate": "CC(C)C[C@H](NC(=O)[C@@H]1CCCN1C(=O)[C@H](C)NC(=O)[C@H](C)NC(=O)CCC(=O)O)C(=O)Nc1ccc([N+](=O)[O-])cc1", "conditions": "other: Table VIII; substrate succinyl-L-AlaL-AlaL-ProL-[X]-p-nitroanilide, X = label (P1 amino acid)", "description": "(§1) A change in substrate specificity is defined as a difference between the kcat/Km ratio of the precursor carbonyl hydrolase and that of the hydrolase mutant. The kcat/Km ratio is a measure of catalytic efficienty. Carbonyl hydrolase mutants with increased or diminished kcat/Km ratios are described in the examples. Generally, the objective will be to secure a mutant having a greater (numerically large) kcat/Km ratio for a given substrate, thereby enabling the use of the enzyme to more efficiently act on a target substrate. A substantial change in kcat/Km ratio is preferably at least 2-fold increase or decrease. However, smaller increases or decreases in the ratio (e.g., at least 1.5-fold) are also considered substantial. An increase in kcat/Km ratio for one substrate may be accompanied by a reduction in kcat/Km ratio for another substrate. […] Km and kcat are measured in accord with known procedures, as described in EPO Publication No. 0130756 or as described herein.\n(§2) Wild-type subtilisin was purified from B. subtilis culture supernatants expressing the B. amyloliquefaciens subtilisin gene (Wells, J.A., et al. (1983) Nucleic Acids Res. 11, 7911-7925) as previously described (Estell, D.A., et al. (1985) J. Biol. Chem. 260, 6518-6521). Details of the synthesis of tetrapeptide substrates having the form succinyl-L-AlaL-AlaL-ProL-[X]-p-nitroanilide (where X is the P1 amino acid) are described by DelMar, E.G., et al. (1979) Anal. Biochem. 99, 316-320. Kinetic parameters, Km(M) and kcat-(s-^1) were measured using a modified progress curve analysis (Estell, D.A., et al. (1985) J. Biol. Chem. 260, 6518-6521). Briefly, plots of rate versus product concentration were fit to the differential form of the rate equation using a non-linear regression algorithm. Errors in kcat and Km for all values reported are less than five percent. The various substrates in Table VIII are ranged in order of decreasing hydrophobicity. Nozaki, Y. (1971), J. Biol. Chem. 246, 2211-2217; Tanford C. (1978) Science 200, 1012)."}, "[2]": {"substrate": "CSCC[C@H](NC(=O)[C@@H]1CCCN1C(=O)[C@H](C)NC(=O)[C@H](C)NC(=O)CCC(=O)O)C(=O)Nc1ccc([N+](=O)[O-])cc1", "conditions": "other: Table XIV, 156 Glu / 166 Gly(wt); value in parentheses; synthetic substrate with label as P-1 amino acid", "description": "as §1, §2"}, "[3]": {"substrate": "C[C@H](NC(=O)CCC(=O)O)C(=O)N[C@@H](C)C(=O)N1CCC[C@H]1C(=O)NCC(=O)Nc1ccc([N+](=O)[O-])cc1", "conditions": "other: Table VIII; substrate succinyl-L-AlaL-AlaL-ProL-[X]-p-nitroanilide, X = label (P1 amino acid)", "description": "as §1, §2"}, "[4]": {"substrate": "C[C@H](NC(=O)CCC(=O)O)C(=O)N[C@@H](C)C(=O)N1CCC[C@H]1C(=O)N[C@@H](C)C(=O)Nc1ccc([N+](=O)[O-])cc1", "description": "as §1, §2"}, "[5]": {"substrate": "C[C@H](NC(=O)CCC(=O)O)C(=O)N[C@@H](C)C(=O)N1CCC[C@H]1C(=O)N[C@@H](CCC(=O)O)C(=O)Nc1ccc([N+](=O)[O-])cc1", "description": "as §1, §2"}, "[6]": {"substrate": "C[C@H](NC(=O)CCC(=O)O)C(=O)N[C@@H](C)C(=O)N1CCC[C@H]1C(=O)N[C@@H](CCC(N)=O)C(=O)Nc1ccc([N+](=O)[O-])cc1", "conditions": "other: Table XIV, 156 Glu / 166 Gly(wt); value in parentheses; synthetic substrate with label as P-1 amino acid", "description": "as §1, §2"}, "[7]": {"substrate": "C[C@H](NC(=O)CCC(=O)O)C(=O)N[C@@H](C)C(=O)N1CCC[C@H]1C(=O)N[C@@H](CCCCN)C(=O)Nc1ccc([N+](=O)[O-])cc1", "conditions": "other: Table XIV, 156 Glu / 166 Gly(wt); value in parentheses; synthetic substrate with label as P-1 amino acid", "description": "as §1, §2"}, "[8]": {"substrate": "C[C@H](NC(=O)CCC(=O)O)C(=O)N[C@@H](C)C(=O)N1CCC[C@H]1C(=O)N[C@@H](CO)C(=O)Nc1ccc([N+](=O)[O-])cc1", "conditions": "other: Table VIII; substrate succinyl-L-AlaL-AlaL-ProL-[X]-p-nitroanilide, X = label (P1 amino acid)", "description": "as §1, §2"}, "[9]": {"substrate": "C[C@H](NC(=O)CCC(=O)O)C(=O)N[C@@H](C)C(=O)N1CCC[C@H]1C(=O)N[C@@H](Cc1c[nH]cn1)C(=O)Nc1ccc([N+](=O)[O-])cc1", "conditions": "other: Table VIII; substrate succinyl-L-AlaL-AlaL-ProL-[X]-p-nitroanilide, X = label (P1 amino acid)", "description": "as §1, §2"}, "[10]": {"substrate": "C[C@H](NC(=O)CCC(=O)O)C(=O)N[C@@H](C)C(=O)N1CCC[C@H]1C(=O)N[C@@H](Cc1ccc(O)cc1)C(=O)Nc1ccc([N+](=O)[O-])cc1", "conditions": "other: Table VIII; substrate succinyl-L-AlaL-AlaL-ProL-[X]-p-nitroanilide, X = label (P1 amino acid)", "description": "as §1, §2"}, "[11]": {"substrate": "C[C@H](NC(=O)CCC(=O)O)C(=O)N[C@@H](C)C(=O)N1CCC[C@H]1C(=O)N[C@@H](Cc1ccccc1)C(=O)Nc1ccc([N+](=O)[O-])cc1", "conditions": "other: Table V; substrate not given; Km in M", "description": "as §1, §2"}, "[12]": {"substrate": "C[C@H](NC(=O)[C@@H]1CCCN1C(=O)[C@H](C)NC(=O)[C@H](Cc1ccccc1)NC(=O)CCC(=O)O)C(=O)Nc1ccc([N+](=O)[O-])cc1", "conditions": "other: Table XI, WT", "description": "as §1, §2"}, "[13]": {"substrate": "C[C@H](NC(=O)[C@H](Cc1ccccc1)NC(=O)CCC(=O)O)C(=O)N1CCC[C@H]1C(=O)N[C@@H](Cc1ccccc1)C(=O)Nc1ccc([N+](=O)[O-])cc1", "conditions": "other: Table XI, WT", "description": "as §1, §2"}, "[14]": {"conditions": "other: Table VIII, substrate succinyl-L-AlaL-AlaL-ProL-[X]-p-nitroanilide, X = label (P1 amino acid)"}, "[15]": {"conditions": "other: Table XIII, Glu156/Gly166 (WT), synthetic substrate with label as P-1 residue"}},
  "data": [
    {"protein": "B1", "values": [
      {"measurement": "kcat", "setting": "[1]", "value": 24, "unit": "S^-1"},
      {"measurement": "kcat/Km", "setting": "[1]", "value": "75,000 s-^1M-1"},
      {"measurement": "Km", "setting": "[2]", "value": 107, "unit": "µM"},
      {"measurement": "kcat", "setting": "[2]", "value": 13, "unit": "S^-1"},
      {"measurement": "kcat/Km", "setting": "[2]", "value": "120,000 s-^1M-1"},
      {"measurement": "kcat", "setting": "[3]", "value": 0.003, "unit": "S^-1"},
      {"measurement": "kcat/Km", "setting": "[3]", "value": "21 s-^1M-1"},
      {"measurement": "kcat", "setting": "[4]; [14]", "value": 1.9, "unit": "S^-1"},
      {"measurement": "kcat/Km", "setting": "[4]; [14]", "value": "11,000 s-^1M-1"},
      {"measurement": "Km", "setting": "[4]; other: Table XI, WT", "value": 230, "unit": "µM"},
      {"measurement": "kcat", "setting": "[4]; other: Table XI, WT", "value": 3.2, "unit": "s-^1"},
      {"measurement": "kcat/Km", "setting": "[4]; other: Table XI, WT", "value": 14000, "unit": "M⁻¹ s⁻¹"},
      {"measurement": "Km", "setting": "[5]; [15]", "value": 34000, "unit": "µM"},
      {"measurement": "kcat", "setting": "[5]; [15]", "value": 0.54, "unit": "s-^1"},
      {"measurement": "kcat/Km", "setting": "[5]; [15]", "value": 16, "unit": "M⁻¹ s⁻¹"},
      {"measurement": "Km", "setting": "[5]; other: Table XIV, 156 Glu / 166 Gly(wt), value in parentheses, synthetic substrate with label as P-1 amino acid", "value": 33900, "unit": "µM"},
      {"measurement": "Km", "setting": "[6]", "value": 447, "unit": "µM"},
      {"measurement": "kcat", "setting": "[6]", "value": 3.2, "unit": "S^-1"},
      {"measurement": "kcat/Km", "setting": "[6]", "value": "7,100 s-^1M-1"},
      {"measurement": "Km", "setting": "[7]", "value": 741, "unit": "µM"},
      {"measurement": "kcat", "setting": "[8]", "value": 2.8, "unit": "S^-1"},
      {"measurement": "kcat/Km", "setting": "[8]", "value": "4,200 s-^1M-1"},
      {"measurement": "kcat", "setting": "[9]", "value": 7.9, "unit": "S^-1"},
      {"measurement": "kcat/Km", "setting": "[9]", "value": "13,000 s-^1M-1"},
      {"measurement": "kcat", "setting": "[10]", "value": 28, "unit": "S^-1"},
      {"measurement": "kcat/Km", "setting": "[10]", "value": "1,100,000 s-^1M-1"},
      {"measurement": "Km", "setting": "[11]", "value": 140, "unit": "µM"},
      {"measurement": "kcat", "setting": "[11]", "value": 50.0, "unit": "s-^1"},
      {"measurement": "kcat/Km", "setting": "[11]", "value": 360000, "unit": "M⁻¹ s⁻¹"},
      {"measurement": "Km", "setting": "[12]", "value": 73, "unit": "µM"},
      {"measurement": "kcat", "setting": "[12]", "value": 0.32, "unit": "s-^1"},
      {"measurement": "kcat/Km", "setting": "[12]", "value": 4400, "unit": "M⁻¹ s⁻¹"},
      {"measurement": "Km", "setting": "[13]", "value": 180, "unit": "µM"},
      {"measurement": "kcat", "setting": "[13]", "value": 26.0, "unit": "s-^1"},
      {"measurement": "kcat/Km", "setting": "[13]", "value": 150000, "unit": "M⁻¹ s⁻¹"}
    ]}
  ]
}
